One molecule from patent US20210155676A1 (Gilead, published 2021) can be followed below.

What all share (test): cell-based or functional assay
Assay [1] addresses HIV-1 93HT593 Env (on virus) (HIV-1 isolate 93HT593).
The target of assay [2] is HIV-1 92US657 Env (on virus) (HIV-1 isolate 92US657).
The target in the next assay is HIV-1 BaL Env (on virus) (HIV-1 strain BaL).
Assay [3] addresses HIV-1 92US727 Env (on virus) (HIV-1 isolate 92US727).
The target of assay [4] is HIV-1 92US712 Env (on virus) (HIV-1 isolate 92US712).

B1: PGT121.61 hIgG1/hLambda (antibody)
heavy: QMQLQESGPGLVKPSETLSLTCSVSGASISDSYWSWIRRSPGKGLEWIGYVHKSGDTNYNPSLKSRVHLSLDTSKNQVSLSLTGVTAADSGKYYCARTLHGRRIYGIVAFNEWFTYFYMDVWGTGTQVTVSSASTKGPSVFPLAPSSKSTSGGTAALGCLVKDYFPEPVTVSWNSGALTSGVHTFPAVLQSSGLYSLSSVVTVPSSSLGTQTYICNVNHKPSNTKVDKKVEPKSCDKTHTCPPCPAPELLAGPDVFLFPPKPKDTLMISRTPEVTCVVVDVSHEDPEVKFNWYVDGVEVHNAKTKPREEQYNSTYRVVSVLTVLHQDWLNGKEYKCKVSNKALPLPEEKTISKAKGQPREPQVYTLPPSREEMTKNQVSLTCLVKGFYPSDIAVEWESNGQPENNYKTTPPVLDSDGSFFLYSKLTVDKSRWQQGNVFSCSVLHEALHSHYTQKSLSLSPGK
light: SDISVAPGETARISCGEKSLGSRAVQWYQHRAGQAPSLIIYNNQDRPSGIPERFSGSPDSRPGTTATLTITSVEAGDEADYYCHIWDSRVPTKWVFGGGTKLTVLGQPKAAPSVTLFPPSSEELQANKATLVCLISDFYPGAVTVAWKADSSPVKAGVETTTPSKQSNNKYAASSYLSLTPEQWKSHRSYSCQVTHEGSTVEKTVAPTECS
Turning to B1, in assay [1], the “neutralization IC50, HIV-1 HT593, CEM.NKr.CCR5.Luc assay” value turned out to be 343 ng/mL. In assay [2], the “neutralization IC50, HIV-1 US657, CEM.NKr.CCR5.Luc assay” value was determined as 72 ng/mL. In the assay with HIV-1 BaL Env (on virus), the “neutralization IC50, HIV-1 BaL, CEM.NKr.CCR5.Luc assay” value came to 8 ng/mL. Further, in assay [3], the “neutralization IC50, HIV-1 US727, CEM.NKr.CCR5.Luc assay” value amounted to 5 ng/mL. In addition, in assay [4], the “neutralization IC50, HIV-1 US712, CEM.NKr.CCR5.Luc assay” value was found to be 8 ng/mL.
